# Reference: US20180172692
# B1: Δ11S (protein)
# chain: MVFTLEDFVGDWEQTAAYNLDQVLEQGGVSSLLQNLAVSVTPIQRIVRSGENALKIDIHVIIPYEGLSADQMAQIEEVFKVVYPVDDHHFKVILPYGTLVIDGVTPNMLNYFGRPYEGIAVFDGKKITVTGTLWNGNKIIDERLITPD
# Key:
# [1] = target: T1, β10*
# T1 chain: VSGWRLFKKIS
# [2] = target: T2, β9
# T2 chain: GSMLFRVTINS
protein,measurement,setting,value
B1,"luminescence (furimazine substrate), fragments each at 1 µM",[1],the mixture of all three components is the only combination that produced significant luminescence
same,"luminescence (furimazine substrate), fragments each at 1 µM",[2],the mixture of all three components is the only combination that produced significant luminescence
